Data as given in PMC6669743.

Target: HAdV-5T* virion (mutant HAdV-5 unable to bind to human or murine FX) (human adenovirus 5) (UniProt P04133)
Assay: co-sedimentation; 2 x 10^11 vp of virus incubated with 250 uL C57BL/6 mouse serum for 30 min at 37 C; virions and bound proteins purified by CsCl gradient ultracentrifugation without cross-linking; LC-MS/MS with label-free quantification normalised to hexon

| Substance | fold change of bound amount against HAdV-5 [fold] |
| --- | --- |
| complement component C3 (mouse) (from UniProt P01027) (natural protein) | 40.2 |
| complement component C4b (mouse) (from UniProt P01029) (natural protein) | 87.8 |
